Results from patent US20170081400A1 (CEPHALON, published 2017).

T1: human TL1A extracellular domain with N-terminal HIS and FLAG tag (human, UniProt O95150 72-251)
T1 construct: the whole entry is named
T1 sequence: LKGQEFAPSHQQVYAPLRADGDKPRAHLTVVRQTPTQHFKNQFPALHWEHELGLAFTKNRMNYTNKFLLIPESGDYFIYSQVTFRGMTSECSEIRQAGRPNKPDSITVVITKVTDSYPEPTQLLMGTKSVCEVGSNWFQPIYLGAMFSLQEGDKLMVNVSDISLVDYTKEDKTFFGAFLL


Columns and labels:
[1] = molecular target: T1, human TL1A extracellular domain with …; experiment: SPR Run 5, Ab from supernatant captured on Protein A, TL1A 5 ug/mL, timepoint 44
Source text: (§1) 1.5. Antibody expression and antigen binding as determined by SPR. Using a CM5 sensor chip (GE Healthcare) Protein A (Pierce) was coupled to the chip surface using an amine coupling kit (GE Healthcare). Protein A was coupled on flow cell 1 and 2 (or alternatively 3 and 4) using a BIACORE® T200. […] The amount of supernatant or purified protein (as well as the concentration) injected during the capture stage varied between runs and is specified in the header of the Tables 3-11. At the end of injection of the supernatant or purified antibody the change in response units was measured. This value was reported as Capture Level in Tables 3-11. […] The response units were measured prior to the end of the dissociation phase. […] The sensorgrams were double referenced (flow cell 2 is subtracted from flow cell 1 and a buffer blank). As there were a large number of antibody variants to screen, these were screened across different runs (Tables 3-11). […] A summary of the conditions used in each run is below:
(§2) 2.1. […] In some experiment the antibodies were purified using Protein A chromatography (See 1.4) and purified antibodies were used in BIACORE® (GE Healthcare) experiments.

[2] = molecular target: T1, human TL1A extracellular domain with …; experiment: SPR Run 5, Ab from supernatant captured on Protein A, TL1A 5 ug/mL, timepoint 220
Source text: as §1, §2

| Binder | TL1A Binding Level (Early) [1] | TL1A Binding Level (Late) [2] |
| --- | --- | --- |
| 320-416 (antibody, human IgG1, name in Kabat numbering, V domains shown, human IgG1, lambda) VH: QVQLVQSGAEVKKPGASVKVSCKASGYTDTSYDINWVRQAPGQGLEWMGWLNPNSGNTGYAQKFQGRVTMTADRSTSTAYMELSSLRSEDTAVYYCAREVPETAAFEYWGQGTLVTVSS VL: QSVLTQPPSVSGAPGQRVTISCTSSSSDIGAGLGVHWYQQLPGTAPKLLIEGYYNRPSGVPDRFSGSKSGTSASLTITGLLPEDEGDYYCQSYDGTLSALFGGGTKLTVLG | 9 RU | 8 RU |
| 320-421 (antibody, human IgG1, V domains shown, human IgG1, lambda; the other rows have T at 28 and F at 29, so F29Y is probably meant) VH: QVQLVQSGAEVKKPGASVKVSCKASGYTYTSYDINWVRQAPGQGLEWMGWLNPNSGNTGYAQKFQGRVTMTADRSTSTAYMELSSLRSEDTAVYYCAREVPETAAFEYWGQGTLVTVSS VL: QSVLTQPPSVSGAPGQRVTISCTSSSSDIGAGLGVHWYQQLPGTAPKLLIEGYYNRPSGVPDRFSGSKSGTSASLTITGLLPEDEGDYYCQSYDGTLSALFGGGTKLTVL | 9 RU | 8 RU |
| 320-431 (antibody, human IgG1, name in Kabat numbering, V domains shown, human IgG1, lambda) VH: QVQLVQSGAEVKKPGASVKVSCKASGYTFTAYDINWVRQAPGQGLEWMGWLNPNSGNTGYAQKFQGRVTMTADRSTSTAYMELSSLRSEDTAVYYCAREVPETAAFEYWGQGTLVTVSS VL: QSVLTQPPSVSGAPGQRVTISCTSSSSDIGAGLGVHWYQQLPGTAPKLLIEGYYNRPSGVPDRFSGSKSGTSASLTITGLLPEDEGDYYCQSYDGTLSALFGGGTKLTVLG | 6 RU | 6 RU |
| 320-423 (antibody, human IgG1, name in Kabat numbering, V domains shown, human IgG1, lambda) VH: QVQLVQSGAEVKKPGASVKVSCKASGYTFSSYDINWVRQAPGQGLEWMGWLNPNSGNTGYAQKFQGRVTMTADRSTSTAYMELSSLRSEDTAVYYCAREVPETAAFEYWGQGTLVTVSS VL: QSVLTQPPSVSGAPGQRVTISCTSSSSDIGAGLGVHWYQQLPGTAPKLLIEGYYNRPSGVPDRFSGSKSGTSASLTITGLLPEDEGDYYCQSYDGTLSALFGGGTKLTVLG | 10 RU | 10 RU |
| 320-418 (antibody, human IgG1, name in Kabat numbering, V domains shown, human IgG1, lambda) VH: QVQLVQSGAEVKKPGASVKVSCKASGYTKTSYDINWVRQAPGQGLEWMGWLNPNSGNTGYAQKFQGRVTMTADRSTSTAYMELSSLRSEDTAVYYCAREVPETAAFEYWGQGTLVTVSS VL: QSVLTQPPSVSGAPGQRVTISCTSSSSDIGAGLGVHWYQQLPGTAPKLLIEGYYNRPSGVPDRFSGSKSGTSASLTITGLLPEDEGDYYCQSYDGTLSALFGGGTKLTVLG | 10 RU | 9 RU |
| 320-424 (antibody, human IgG1, name in Kabat numbering, V domains shown, human IgG1, lambda) VH: QVQLVQSGAEVKKPGASVKVSCKASGYTFQSYDINWVRQAPGQGLEWMGWLNPNSGNTGYAQKFQGRVTMTADRSTSTAYMELSSLRSEDTAVYYCAREVPETAAFEYWGQGTLVTVSS VL: QSVLTQPPSVSGAPGQRVTISCTSSSSDIGAGLGVHWYQQLPGTAPKLLIEGYYNRPSGVPDRFSGSKSGTSASLTITGLLPEDEGDYYCQSYDGTLSALFGGGTKLTVLG | 11 RU | 10 RU |
| 320-429 (antibody, human IgG1, name in Kabat numbering, V domains shown, human IgG1, lambda) VH: QVQLVQSGAEVKKPGASVKVSCKASGYTFWSYDINWVRQAPGQGLEWMGWLNPNSGNTGYAQKFQGRVTMTADRSTSTAYMELSSLRSEDTAVYYCAREVPETAAFEYWGQGTLVTVSS VL: QSVLTQPPSVSGAPGQRVTISCTSSSSDIGAGLGVHWYQQLPGTAPKLLIEGYYNRPSGVPDRFSGSKSGTSASLTITGLLPEDEGDYYCQSYDGTLSALFGGGTKLTVLG | 12 RU | 11 RU |
| 320-426 (antibody, human IgG1, name in Kabat numbering, V domains shown, human IgG1, lambda) VH: QVQLVQSGAEVKKPGASVKVSCKASGYTFHSYDINWVRQAPGQGLEWMGWLNPNSGNTGYAQKFQGRVTMTADRSTSTAYMELSSLRSEDTAVYYCAREVPETAAFEYWGQGTLVTVSS VL: QSVLTQPPSVSGAPGQRVTISCTSSSSDIGAGLGVHWYQQLPGTAPKLLIEGYYNRPSGVPDRFSGSKSGTSASLTITGLLPEDEGDYYCQSYDGTLSALFGGGTKLTVLG | 10 RU | 9 RU |
| 320-419 (antibody, human IgG1, name in Kabat numbering, V domains shown, human IgG1, lambda) VH: QVQLVQSGAEVKKPGASVKVSCKASGYTLTSYDINWVRQAPGQGLEWMGWLNPNSGNTGYAQKFQGRVTMTADRSTSTAYMELSSLRSEDTAVYYCAREVPETAAFEYWGQGTLVTVSS VL: QSVLTQPPSVSGAPGQRVTISCTSSSSDIGAGLGVHWYQQLPGTAPKLLIEGYYNRPSGVPDRFSGSKSGTSASLTITGLLPEDEGDYYCQSYDGTLSALFGGGTKLTVLG | 11 RU | 9 RU |
| 320-417 (antibody, human IgG1, name in Kabat numbering, V domains shown, human IgG1, lambda) VH: QVQLVQSGAEVKKPGASVKVSCKASGYTHTSYDINWVRQAPGQGLEWMGWLNPNSGNTGYAQKFQGRVTMTADRSTSTAYMELSSLRSEDTAVYYCAREVPETAAFEYWGQGTLVTVSS VL: QSVLTQPPSVSGAPGQRVTISCTSSSSDIGAGLGVHWYQQLPGTAPKLLIEGYYNRPSGVPDRFSGSKSGTSASLTITGLLPEDEGDYYCQSYDGTLSALFGGGTKLTVLG | 9 RU | 8 RU |
| 320-420 (antibody, human IgG1, name in Kabat numbering, V domains shown, human IgG1, lambda) VH: QVQLVQSGAEVKKPGASVKVSCKASGYTWTSYDINWVRQAPGQGLEWMGWLNPNSGNTGYAQKFQGRVTMTADRSTSTAYMELSSLRSEDTAVYYCAREVPETAAFEYWGQGTLVTVSS VL: QSVLTQPPSVSGAPGQRVTISCTSSSSDIGAGLGVHWYQQLPGTAPKLLIEGYYNRPSGVPDRFSGSKSGTSASLTITGLLPEDEGDYYCQSYDGTLSALFGGGTKLTVLG | 11 RU | 10 RU |
| 320-422 (antibody, human IgG1, name in Kabat numbering, V domains shown, human IgG1, lambda) VH: QVQLVQSGAEVKKPGASVKVSCKASGYTFASYDINWVRQAPGQGLEWMGWLNPNSGNTGYAQKFQGRVTMTADRSTSTAYMELSSLRSEDTAVYYCAREVPETAAFEYWGQGTLVTVSS VL: QSVLTQPPSVSGAPGQRVTISCTSSSSDIGAGLGVHWYQQLPGTAPKLLIEGYYNRPSGVPDRFSGSKSGTSASLTITGLLPEDEGDYYCQSYDGTLSALFGGGTKLTVLG | 10 RU | 9 RU |
| 320-427 (antibody, human IgG1, name in Kabat numbering, V domains shown, human IgG1, lambda) VH: QVQLVQSGAEVKKPGASVKVSCKASGYTFKSYDINWVRQAPGQGLEWMGWLNPNSGNTGYAQKFQGRVTMTADRSTSTAYMELSSLRSEDTAVYYCAREVPETAAFEYWGQGTLVTVSS VL: QSVLTQPPSVSGAPGQRVTISCTSSSSDIGAGLGVHWYQQLPGTAPKLLIEGYYNRPSGVPDRFSGSKSGTSASLTITGLLPEDEGDYYCQSYDGTLSALFGGGTKLTVLG | 11 RU | 10 RU |
| 320-428 (antibody, human IgG1, name in Kabat numbering, V domains shown, human IgG1, lambda) VH: QVQLVQSGAEVKKPGASVKVSCKASGYTFLSYDINWVRQAPGQGLEWMGWLNPNSGNTGYAQKFQGRVTMTADRSTSTAYMELSSLRSEDTAVYYCAREVPETAAFEYWGQGTLVTVSS VL: QSVLTQPPSVSGAPGQRVTISCTSSSSDIGAGLGVHWYQQLPGTAPKLLIEGYYNRPSGVPDRFSGSKSGTSASLTITGLLPEDEGDYYCQSYDGTLSALFGGGTKLTVLG | 11 RU | 10 RU |
| 320-425 (antibody, human IgG1, name in Kabat numbering, V domains shown, human IgG1, lambda) VH: QVQLVQSGAEVKKPGASVKVSCKASGYTFDSYDINWVRQAPGQGLEWMGWLNPNSGNTGYAQKFQGRVTMTADRSTSTAYMELSSLRSEDTAVYYCAREVPETAAFEYWGQGTLVTVSS VL: QSVLTQPPSVSGAPGQRVTISCTSSSSDIGAGLGVHWYQQLPGTAPKLLIEGYYNRPSGVPDRFSGSKSGTSASLTITGLLPEDEGDYYCQSYDGTLSALFGGGTKLTVLG | 14 RU | 12 RU |
| 320-430 (antibody, human IgG1, name in Kabat numbering, V domains shown, human IgG1, lambda) VH: QVQLVQSGAEVKKPGASVKVSCKASGYTFYSYDINWVRQAPGQGLEWMGWLNPNSGNTGYAQKFQGRVTMTADRSTSTAYMELSSLRSEDTAVYYCAREVPETAAFEYWGQGTLVTVSS VL: QSVLTQPPSVSGAPGQRVTISCTSSSSDIGAGLGVHWYQQLPGTAPKLLIEGYYNRPSGVPDRFSGSKSGTSASLTITGLLPEDEGDYYCQSYDGTLSALFGGGTKLTVLG | 6 RU | 6 RU |
